# Laboratory results reported in PMC2575085 (Nature structural & molecular biology, 2008).
# Several values for one entry are separate records, joined by “and”; a condition that tells them apart may be missing. Equal values may be shown once. Read-outs that look alike come from different tables or passages of the source.
# B1: Sso1pHT I273C, spin-labeled (domain or fragment, yeast, UniProt P32867 185-290, looked up)
# chain: EAKTALAEVQARHQELLKLEKSMAELTQLFNDMEELVIEQQENVDVIDKNVEDAQLDVEQGVGHTDKAVKSARKARKNKIRAWLIVFACIVVVVVVVVVPAVVKTR
# modifications: MTSSL nitroxide spin label on the cysteine at 273
# How the values were obtained:
# Experiment in all cases: EPR
# [1] = target: Sso1pHT spin-labeled cysteine mutant at position 269 (yeast) (UniProt P32867)
# [2] = target: Sso1pHT spin-labeled cysteine mutant at position 269 (yeast) (UniProt P32867); remark: listed apart in the source
# [3] = target: Sso1pHT spin-labeled cysteine mutant at position 272 (yeast) (UniProt P32867)
# [4] = target: Sso1pHT spin-labeled cysteine mutant at position 272 (yeast) (UniProt P32867); remark: listed apart in the source
# [5] = target: Sso1pHT spin-labeled cysteine mutant at position 284 (yeast) (UniProt P32867)
# [6] = target: Sso1pHT spin-labeled cysteine mutant at position 284 (yeast) (UniProt P32867); remark: listed apart in the source
# EPR = target: the molecule itself
molecule,measurement,setting,value
Sso1pHT spin-labeled cysteine mutant at position 269 (from UniProt P32867 185-290) (domain or fragment),stoichiometry N,[1],> 3
same,"ln K (equilibrium constant of nM to Mn, concentration as protein:lipid ratio)",[2],18.4
same,stoichiometry N,[2],4
Sso1pHT spin-labeled cysteine mutant at position 272 (from UniProt P32867 185-290) (domain or fragment),stoichiometry N,[3],> 3
same,"ln K (equilibrium constant of nM to Mn, concentration as protein:lipid ratio)",[4],18.4
same,stoichiometry N,[4],4
Sso1pHT spin-labeled cysteine mutant at position 284 (from UniProt P32867 185-290) (domain or fragment),stoichiometry N,[5],> 3
same,"ln K (equilibrium constant of nM to Mn, concentration as protein:lipid ratio)",[6],18.4
same,stoichiometry N,[6],4
B1,"ln K (equilibrium constant of nM to Mn, concentration as protein:lipid ratio)",EPR,18.4
same,stoichiometry N,EPR,4 and ≥ 3
